Test results taken from patent US20200325230A1 (CURIA IP, published 2020).

How the values were obtained:
human BTLA(ECD)-HIS = biological target: T1, human BTLA(ECD)-HIS (human, UniProt Q7Z6A9 31-157); experiment: ELISA, coated BTLA(ECD)-HIS, chemiluminescence (RLU)
T1 construct: extracellular domain; also called recombinant BTLA; not shown: HIS tag

cynomolgus BTLA(ECD)-HIS = biological target: T2, cynomolgus BTLA(ECD)-HIS (cynomolgus, UniProt A0A2K5W7M7 31-157); experiment: as above
T2 construct: extracellular domain; also called Cyno BTLA; not shown: HIS tag

cynoBTLA-human Fc = biological target: T3, cynoBTLA-human Fc (cynomolgus, UniProt A0A2K5W7M7 31-157); experiment: ELISA, inhibition of cynoBTLA-human Fc binding to coated human HVEM-ratIgG2a
T3 construct: also called cynomolgus BTLA; not shown: human Fc

[1] = biological target: T4, cynomolgus BTLA expressed on HEK-293 cells (cynomolgus, UniProt A0A2K5W7M7 31-289); experiment: flow cytometry on HEK 293 cells expressing BTLA (MFI)
T4 construct: whole, on cells; also called Cyno BTLA

[2] = biological target: T5, human BTLA expressed on HEK-293 cells (human, UniProt Q7Z6A9 31-289); experiment: as above
T5 construct: whole, on cells

recombinant human BTLA = recombinant human BTLA (human, UniProt Q7Z6A9 31-157, limits assumed); experiment: Bio-Layer Interferometry (Octet), antibody captured by anti-human-Fc (AHC), BTLA in solution, 1:1 fit
[3] = biological target: T6, cynomolgus BTLA (analyte of Bio-Layer Interferometry) (cynomolgus, UniProt A0A2K5W7M7 31-157); experiment: as above
T6 construct: also called Cyno BTLA

human BTLA-human Fc = biological target: T7, human BTLA-human Fc (human, UniProt Q7Z6A9 31-157); experiment: ELISA, inhibition of BTLA-human Fc binding to coated human HVEM-ratIgG2a
T7 construct: not shown: human Fc

T6 sequence (A0A2K5W7M7 entry or part of it): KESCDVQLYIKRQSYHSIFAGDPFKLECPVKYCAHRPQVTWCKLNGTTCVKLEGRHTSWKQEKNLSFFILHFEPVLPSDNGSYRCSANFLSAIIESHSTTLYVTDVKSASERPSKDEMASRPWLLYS
T4 sequence (A0A2K5W7M7 entry or part of it): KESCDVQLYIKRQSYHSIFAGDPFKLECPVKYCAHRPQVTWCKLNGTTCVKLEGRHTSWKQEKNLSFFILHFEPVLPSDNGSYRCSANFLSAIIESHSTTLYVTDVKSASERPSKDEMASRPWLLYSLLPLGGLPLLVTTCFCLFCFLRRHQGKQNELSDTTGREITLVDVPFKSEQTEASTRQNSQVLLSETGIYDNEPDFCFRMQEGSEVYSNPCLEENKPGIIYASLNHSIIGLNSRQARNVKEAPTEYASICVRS

Row | Binder | EC50 (human BTLA(ECD)-HIS) [nM] | EC50 (cynomolgus BTLA(ECD)-HIS) [nM] | IC50 (cynoBTLA-human Fc) [nM] | EC50 [1] [nM] | EC50 [2] [nM] | Kd (recombinant human BTLA) [nM] | Kd [3] [nM] | IC50 (human BTLA-human Fc) [nM]
1 | anti-BTLA antibody 13-F7A (antibody, V domains shown) VH: EVQLLESGGGLVQPGGSLRLSCAASGFTSSSYGMSWVRQAPGKGLEWVSGISGSGGGTYYADSVKGRFTISRDNSKNTLYLQMNSLRAEDTAVYYCAKGDYYGSGSYPLFDYWGQGTLVTVSS VL: AIQLTQSPSSLSASVGDRVTITCRASQDISSALAWYQQKPGKAPKLLISDASSLESGVPSRFSGSGSGTDFTLTISSLQPEDFATFYCQQFNNYPPTFGPGTKVDIK | 1 | 1 | 1.8 | 2.6 | 1.5 | 5.4 | 3.9 | 2.5
2 | anti-BTLA antibody 16-I20A (antibody, V domains shown, also called 16420A) VH: QVQLQESGPGLVKPSETLSLTCTVSGGSISYYYWSWIRQPPGTGLEWIGYIYYSGSTKYNPSLKRRVTISVDTSKNQFSLKLSSVTAADTAVYYCARIRGDSYGWDFDYWGQGTLVTVSS VL: EIVMTQSPATLSLSPGERATLSCRASQSISNNYLFWYQQKPGQAPRLLIYGASTRATGIPARFSGSGSGTDFTLTISSLQPEDFAVYYCQQDYNFPLTFGGGTKVEIK | 0.7 | 0.8 | 2.5 | 6.9 | 5 | 14.9 | 16.6 | 2.9
3 | anti-BTLA antibody 8-M23A (antibody, V domains shown) VH: QVQLQESGPGLVKPSETLSLTCTVSGGSISSYYWSWIRQPPGKGLEWIGYIYYSGSTNYNPSLKSRITISVDTSKNQFSLKLSSVTAADTAVYYCARVILYSSGWSFDYWGQGTLVTVSS VL: EIVMTQSPATLSLSPGERATLSCRASQSVSSSYLSWYQQKPGQAPRLLIYGASTRATGIPARFSGSGSGTDFTLTISSLQPEDFAVYYCQQDYNLPLTFGGGTKVEIK | 0.8 | – | – | – | – | – | – | –
4 | anti-BTLA antibody 16-H16A (antibody, V domains shown) VH: QLQLQESGPGLVKPSETLSLTCTVSGDSISSSGYYWGWIRQPPGKGLEWIGSIYYSGSTHYNPSLKSRVTISVDSSKSQFSLKLSSVTAADTAVYCCARHKVDSSGWPLDYWGQGTLVTVSS VL: EIVMTQSPATLSLSPGERATLSCRASQSISSSCLSWYQQKPGQAPRLLIYDTSTRATGIPARFSGSGSGTDFTLTISSLQPEDFAVYYCQQDYNLPLTFGGGTKVEIK | 0.9 | 1.9 | 2.3 | 4.4 | 4.7 | 13.9 | 4.1 | 3
5 | anti-BTLA antibody 12-I8A (antibody, V domains shown, also called 12-IBA) VH: QVQLVESGGGVVQPGRSLRLSCAASGFTFSNYGMHWVRQAPGKGLEWVAVIWYNGSNKYYADSVKGRFTISRDNSKNTLYLQMNSLRAEDTAVYYCARDDVVRYFDWPLDYWGQGTLVTVSS VL: AIQMTQSPSSLSASVGDRVTITCRASQGIRNDLGWYQQKPGKAPKVLIYAASSLQSGVPSRFSGSGSGTDFTLTISSLQPEDFATYYCLQDYNYPWTFGQGTKVEIK | 1.4 | 4.2 | 4.6 | 5 | 2.9 | 25.2 | 23.2 | 4.4
